Test results taken from PMC2199173.

Molecular target: purified soluble human FasL (AL-1) (human)
Assay: SEC

stoichiometry N: 3
Substance: purified soluble human FasL (AL-1) (ligand)
